Experimental findings from PMC10121561, “Control of a hippocampal recurrent excitatory circuit by cannabinoid receptor-interacting protein Gap43” (Nature Communications, 2023) are described below.

The target of assay [1] is CB1R (type-1 cannabinoid receptor) (UniProt P21554). The assay can be described thus: BRET saturation, CB1R-RLuc and GFP-GAP43. The note with it: reference: GFP-GAP43 wild type; sites S41.
Assay [2] has as its target T1, hGAP43 (purified, unlabeled human growth-associated protein of 43 kDa) (human, UniProt P17677 1-238).
T1 construct: growth-associated protein of 43 kDa (GAP43, neuromodulin), human; also called unlabeled GAP43; neuromodulin; source: purified (details in Supplementary Methods)
T1 sequence (looked up): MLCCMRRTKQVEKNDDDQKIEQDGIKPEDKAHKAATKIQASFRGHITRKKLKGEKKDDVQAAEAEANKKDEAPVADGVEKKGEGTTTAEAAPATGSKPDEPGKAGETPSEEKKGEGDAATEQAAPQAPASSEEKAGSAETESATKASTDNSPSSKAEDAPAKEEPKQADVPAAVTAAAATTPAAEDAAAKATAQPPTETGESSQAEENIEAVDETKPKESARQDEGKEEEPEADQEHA
The assay is described as follows: fluorescence polarisation; fixed concentration of 5-IAF-labeled hCB1R-CTD, increasing concentrations of unlabeled hGAP43; 3 independent experiments. The note with it: both partners purified.

Assay [3] concerns the target T2, RLuc-tagged CB1R (UniProt P21554 1-472).
T2 construct: type-1 cannabinoid receptor (CB1R); also called CB1R-RLuc; source: HEK293T, transfected, in live cells
The assay is described as follows: FRET or BRET; BRET saturation in live HEK293T cells expressing CB1R-RLuc and increasing amounts of GFP-GAP43 forms; 3 independent experiments. The note with it: partners not purified. In general terms: BRET reads energy transfer from a luciferase to a nearby fluorophore.

Changes are numbered by the printed parent chain. Names may count otherwise.

As to “GAP43 (growth-associated protein of 43 kDa; neuromodulin) (from UniProt P17677) GFP-GAP43 S41D”, the “other: BRET50 (RLuc/GFP ratio giving half-maximal BRET)” value in assay [1] is recorded as “stronger; reference 15.18 ± 4.53”.

B1: 5-(iodoacetamido)fluorescein-labeled hCB1R-CTD (domain or fragment, human, UniProt P21554 408-472, looked up)
chain: FRSMFPSCEGTAQPLDNSMGDSDCLHKHANNAASVHRAAESCIKSTVKIAKVTMSVSTDTSAEAL
modifications: also: 5-(iodoacetamido)fluorescein label, position not given here
notes: type-1 cannabinoid receptor (CB1R), human, C-terminal intracellular domain, amino acids 408-472; protein expression and purification are in the Supplementary Methods; also called 5-IAF-labeled CB1R-CTD; source: purified (recombinant; details in Supplementary Methods)
What is called Kd is the free concentration of one partner at which half of the binding sites on the other are occupied at equilibrium, for simple one-to-one binding. Low values mean a tighter complex, high ones a looser complex. The molecule B1 gave a dissociation constant Kd in assay [2] of 38.2 µM.

B2: GFP-GAP43(WT) (natural protein, UniProt P17677 1-238, looked up)
chain: T1 sequence (looked up)
notes: growth-associated protein of 43 kDa (GAP43), wild type; In the co-IP and DMR experiments the text writes GAP43(WT) without GFP; source: HEK293T, transfected, in cells or lysate
On to B2, for which the “BRET50 (RLuc/GFP ratio that gives half-maximal BRET effect)” value in assay [3] turned out to be 15.2.

B3: GFP-GAP43(S41D) (natural protein, UniProt P17677 1-238, looked up)
chain: T1 sequence (looked up) with S41D
notes: growth-associated protein of 43 kDa (GAP43) with the phospho-mimetic point mutation S41D; In the co-IP and DMR experiments the text writes GAP43(S41D) without GFP; also called phospho-mimetic GAP43; source: HEK293T, transfected, in cells or lysate
For B3, the “BRET50 (RLuc/GFP ratio that gives half-maximal BRET effect)” value in assay [3] was 7.08.
